± gives the standard deviation.

Here are results for 72 sequences from the supplement of paper PMC10567573.

This data set in a line: protein stability index of a GFP-peptide fusion (GPS, HEK-293T) (PSI 1-6); higher = more stable.
Where [1] appears, read: treatment: DMSO, c terminus: a fixed tail appended.
The mark [2] stands for this setting: treatment: MLN4924 1 uM, 8 h, c terminus: a fixed tail appended.
The mark [3] stands for this setting: treatment: DMSO, c terminus: native.
Where [4] appears, read: treatment: MLN4924 1 uM, 8 h, c terminus: native.
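Further: 24-mer peptide tiles fused after GFP, lentivirally expressed, FACS-sorted into six equal bins by GFP/DsRed ratio, decoded by Illumina sequencing, PSI is the read-weighted mean bin number.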

Consider PVRDECEERNRFTETREEDVTDEH [FAM9B], for which the protein stability index by setting is: under setting [1], 5.44 ± 0.21; under setting [2], 5.66 ± 0.24.

PVSDTPDEGDEPMPIPEDLSTTSG [IKZF1]: the protein stability index runs as follows: under setting [1], 5.75 ± 0.25; under setting [2], 5.66 ± 0.3.

PWEPPVLPILTWPVLQSRTGLVYD [HDAC6]: the protein stability index is, setting by setting: under setting [1], 3.46 ± 0.51; under setting [2], 3.35 ± 0.23.

For QAAFTQQGMEGIKVFLHERELWLK [TBX5], the protein stability index runs as follows: under setting [1], 2.86 ± 0.37; under setting [2], 2.92 ± 0.4.

For QAINNAINYLGAESLRPLVQTPPG [IKZF1], the protein stability index worked out at 2.39 ± 0.29 under setting [1] and 2.25 ± 0.32 under setting [2].

In the case of QARKALFEKWEQETAAGKGKGEAR [SMTNL2], the protein stability index reads like this: under setting [1], 4.836 ± 0.03; under setting [2], 4.84 ± 0.29.

QAYAHYLLATFPRRALAPPSAGFR [ANKRD9]: the protein stability index came to 2.31 ± 0.22 under setting [1] and 2.37 ± 0.23 under setting [2].

With QCKEWQVLMCGFPFLLLFLGNFFT [TMEM120A], the protein stability index came out at 2.81 ± 0.053 under setting [1] and 2.92 ± 0.53 under setting [2].

As for QCRERREHPNLVRDHVETELLKEA [TEKT4], the protein stability index under setting [1] came to 4.77 ± 0.19 and the protein stability index under setting [2] worked out at 4.97 ± 0.23.

With QDGSPTTSRRPSGTGTGPEDGRPS [PDLIM4], the protein stability index is, setting by setting: under setting [1], 5.37 ± 0.22; under setting [2], 5.66 ± 0.16.

The sequence QEITSETEDLCEKPDDEVKETAHD [RIPK4] registered a protein stability index under setting [1] of 5.6 ± 0.17 and a protein stability index under setting [2] of 5.69 ± 0.21.

With QELASLLRTYLARLPWAGQLTKEL [PBXIP1], the protein stability index is, setting by setting: under setting [1], 2.95 ± 0.59; under setting [2], 2.72 ± 0.7.

On to QELEEEIKELYENFCKHNGSKNVF [ATL3], for which the protein stability index reads like this: under setting [1], 3.02 ± 0.32; under setting [2], 3.57 ± 0.48.

Turning to QENAIQTMELRNYFSLYCLHQETQ [SNX8], the protein stability index under setting [1] came to 2.58 ± 0.31 and the protein stability index under setting [2] is 2.52 ± 0.4.

Regarding QGMIQLALSGASQPGPSGAPAQRA [RETREG3], the protein stability index worked out at 4.26 ± 0.1 under setting [1] and 4.32 ± 0.22 under setting [2].

Take QGNGLFYSSGPQSWYPKANNQDFI [ZC2HC1C]: the protein stability index stood at 2.6 ± 0.16 under setting [1] and 2.85 ± 0.051 under setting [2].

With QGQPAMEGHCVIQVDVGDVNDNAP [PCDHGC5], the protein stability index runs as follows: under setting [1], 4.97 ± 0.5; under setting [2], 4.78 ± 0.075.

Sequence QHAALGGTATRQNNWPPLPSFCPV [SCAMP3] yielded a protein stability index under setting [1] of 3.33 ± 0.28 and a protein stability index under setting [2] of 3.39 ± 0.37.

QHEESTEGEADHSGYAGELGFRAF [UFD1]: the protein stability index reads like this: under setting [1], 4.81 ± 0.31; under setting [2], 4.88 ± 0.31.

For the sequence QHYFYDYDCGEDFYRSTAPSEDIW [MYCL], the protein stability index came to 2.63 ± 0.49 under setting [1] and 2.59 ± 0.33 under setting [2].

Turning to QILEGELFDFDLEVKPVLEVLVGK [RSPH3], the protein stability index is, setting by setting: under setting [1], 2.13 ± 0.58; under setting [2], 2.37 ± 0.67.

Consider QIMFDVEMHTSRDHSSQSEEEVVE [BNIP3L], for which the protein stability index is, setting by setting: under setting [1], 5.33 ± 0.063; under setting [2], 5.37 ± 0.22.

Turning to QKELQDVGQSLRIKEQEVCKLQEQ [SASS6], the protein stability index runs as follows: under setting [1], 4.88 ± 0.25; under setting [2], 5.03 ± 0.36.

On to QKGIPPSLRGRAWQYLSGGKVKLQ [TBC1D10A], for which the protein stability index turned out to be 2.8 ± 0.13 under setting [1] and 3 ± 0.21 under setting [2].

For QLFTEYGRLAMDEIFQKPFQTLMF [ATL3], the protein stability index runs as follows: under setting [1], 2.33 ± 0.49; under setting [2], 2.35 ± 0.47.

For QLSATGQKLYVRLFQRKLSWIKMT [FAN1], the protein stability index stood at 2.3 ± 0.6 under setting [1] and 2.04 ± 0.17 under setting [2].

On to QLTCFSITCSSTMSYSCCLPSLGC [KRT34], for which the protein stability index worked out at 3.04 ± 0.58 under setting [1] and 2.65 ± 0.35 under setting [2].

For QLVRYSADGLLQLGPLGSTAFLPD [GALNT9], the protein stability index is, setting by setting: under setting [1], 2.33 ± 0.27; under setting [2], 2.67 ± 0.3.

QNARLAELERKLREVMESAVGNSS [FBXO28]: the protein stability index is, setting by setting: under setting [1], 3.68 ± 0.23; under setting [2], 3.52 ± 0.34.

In turn, QPSFEPTKNKELTDEFRELRATVE [FADS1] showed a protein stability index under setting [1] of 4.98 ± 0.19 and a protein stability index under setting [2] of 4.86 ± 0.35.

For QQPPRLLIVHIALPSWADICTNLC [M1AP], the protein stability index runs as follows: under setting [1], 3 ± 0.3; under setting [2], 2.74 ± 0.51.

In turn, QQQCHEMAERLEDSVLKGMQAASS [SDE2] gave a protein stability index under setting [1] of 4.17 ± 0.33 and a protein stability index under setting [2] of 4.2 ± 0.41.

Consider QRSYFLRIFDIKDGKLLWEQELYN [WASL], for which the protein stability index is 2.21 ± 0.48 under setting [1] and 2.08 ± 0.4 under setting [2].

As for QRTVGQLMELCRLYHRADVEKVLR [EDARADD], the protein stability index by setting is: under setting [1], 2.38 ± 0.45; under setting [2], 2 ± 0.22.

For the sequence QVETSIEGTIPFSKPVKVYIMPKP [INTS4], the protein stability index is, setting by setting: under setting [1], 2.65 ± 0.33; under setting [2], 2.65 ± 0.42.

Regarding RAGLDLPTIDTGYDSQPQDVLGIR [TRAF3IP2], the protein stability index amounted to 4.25 ± 0.37 under setting [1] and 4.29 ± 0.18 under setting [2].

Consider RAIPELTKLLNDEDQVVVNKAAVM [CTNNB1], for which the protein stability index worked out at 3.91 ± 0.16 under setting [1] and 3.89 ± 0.21 under setting [2].

With RARGWAAAARAAQRRRRVENAGGS [RSAD1], the protein stability index amounted to 4.48 ± 0.19 under setting [1] and 4.77 ± 0.17 under setting [2].

For RAYRFVQGKDWGFKKFIRRDFLLD [SPOPL], the protein stability index by setting is: under setting [1], 2.48 ± 1.1; under setting [2], 2.28 ± 0.29.

Take RCHRGYTLDPNGKTCSRVDHCAQQ [MATN2]: the protein stability index is, setting by setting: under setting [1], 3.68 ± 0.28; under setting [2], 3.22 ± 0.34.

As to RCRPRSLIDYKSYMDTKLLVARFL [FAM189A2], the protein stability index was found to be 2.42 ± 0.11 under setting [1] and 2.3 ± 0.3 under setting [2].

With RDGRRDRYSSDTTPLLNGSSQDRM [GOSR1], the protein stability index is, setting by setting: under setting [1], 4.76 ± 0.07; under setting [2], 4.85 ± 0.2.

Take RDLALVSRDGMNIVLNKINQILME [INTS3]: the protein stability index reads like this: under setting [1], 2.58 ± 0.28; under setting [2], 2.69 ± 0.67.

On to RDPLQTDTLQNDYFAIKQEVVTPD [ETS1], for which the protein stability index came out at 4.89 ± 0.42 under setting [1] and 4.9 ± 0.47 under setting [2].

In turn, REKTNICYLSFPDSNSGCLGDTQF [DENND6A] yielded a protein stability index under setting [1] of 2.88 ± 0.063 and a protein stability index under setting [2] of 2.9 ± 0.25.

RETLIIAVLVSASIANLWLWMNQ [FATE1]: the protein stability index is, setting by setting: under setting [3], 2.54 ± 0.14; under setting [4], 2.31 ± 0.21.

Take RFHRARWGLEEEDFQPREEAMLYH [P3H4]: the protein stability index by setting is: under setting [1], 2.93 ± 0.11; under setting [2], 2.9 ± 0.13.

As to RFTTSKLQSFEDLASISTYGFRGE [MLH1], the protein stability index amounted to 3.24 ± 0.47 under setting [1] and 3.12 ± 0.36 under setting [2].

With RGGGGGGGGGAPRGRYGPPSRRSE [SRSF1], the protein stability index by setting is: under setting [1], 5.61 ± 0.1; under setting [2], 5.49 ± 0.071.

Consider RGIDSSSVKLRGSSLFMDTEKSGK [WEE1], for which the protein stability index under setting [1] stood at 4.91 ± 0.57 and the protein stability index under setting [2] is 4.99 ± 0.25.

For RGLRGPNLTSPASITFTTGLEAPR [TNXB], the protein stability index stood at 3.84 ± 0.2 under setting [1] and 3.92 ± 0.47 under setting [2].

For RGRHEQSPTSRPRKVSSLPPRSC [C22orf15], the protein stability index by setting is: under setting [3], 3.06 ± 0.81; under setting [4], 3.5 ± 0.85.

Sequence RGVPLLEWETEVEMDKLRASDIME [CLCN6] displayed a protein stability index under setting [1] of 4.2 ± 0.043 and a protein stability index under setting [2] of 4.3 ± 0.13.

Turning to RHEVIMDRHGVYGLQRNLLVENII [TRIM63], the protein stability index worked out at 2.42 ± 0.13 under setting [1] and 2.31 ± 0.22 under setting [2].

Consider RHGGLSLVQTTDFFYPLVEDPYMM [SEPHS2], for which the protein stability index by setting is: under setting [1], 2.3 ± 0.25; under setting [2], 2.24 ± 0.28.

Take RHKQPTLLMVRASRRSGKTSAVLK [C6orf223]: the protein stability index under setting [1] worked out at 3.29 ± 0.26 and the protein stability index under setting [2] is 3.45 ± 0.24.

In the case of RISHTLYDLDKIIELNGGQPPLTY [CRY1], the protein stability index is, setting by setting: under setting [1], 2.38 ± 0.041; under setting [2], 2.6 ± 0.27.

In the case of RITAAEALKHPWISHRSTVASCMH [CAMK2A], the protein stability index is, setting by setting: under setting [1], 2.54 ± 0.19; under setting [2], 2.89 ± 0.19.

As to RKGCLRFQLPERGSRLCLYEDGTE [DFFB], the protein stability index under setting [1] came out at 3.34 ± 0.39 and the protein stability index under setting [2] is 3.47 ± 0.21.

As for RKLFGQESGPSAEKYSVATQLFIG [FUNDC2], the protein stability index under setting [1] was found to be 2.61 ± 0.18 and the protein stability index under setting [2] turned out to be 2.47 ± 0.26.

As to RKLRELQLRNCLRILMGELSNHHD [BEX3], the protein stability index worked out at 2.38 ± 0.21 under setting [1] and 2.28 ± 0.19 under setting [2].

As for RKSLLVVHQRTHTGEKPHTCSECG [ZNF649], the protein stability index runs as follows: under setting [1], 3.98 ± 0.21; under setting [2], 3.95 ± 0.42.

Regarding RLDGCIYAIKRSKKPLAGSVDEQN [WEE1], the protein stability index is 3.54 ± 0.28 under setting [1] and 3.73 ± 0.22 under setting [2].

Turning to RLLRFSSQIHNNGQSDFRPKNGRH [LOXL2], the protein stability index under setting [1] is 3.2 ± 0.41 and the protein stability index under setting [2] was found to be 3.42 ± 0.81.

Regarding RLNGTAKGERRREPGGYDSSSTLM [DVL3], the protein stability index by setting is: under setting [1], 3.62 ± 0.13; under setting [2], 4.01 ± 0.31.

On to RLPFLSSSNLSLDVLRGNDETIGF [POMP], for which the protein stability index is, setting by setting: under setting [1], 3.02 ± 0.42; under setting [2], 3 ± 0.27.

As for RLQELCHGWLRPEMRTKEQILELL [ZNF263], the protein stability index was determined as 2.58 ± 0.11 under setting [1] and 2.9 ± 0.12 under setting [2].

Take RLVHTTAIEHFQPNADLLFSDPSQ [FCHO1]: the protein stability index was 3.78 ± 0.15 under setting [1] and 3.87 ± 0.24 under setting [2].

As to RMLKDNKKNWRRVYKSLLLLAYLI [CLINT1], the protein stability index is 2.45 ± 0.38 under setting [1] and 2.63 ± 0.23 under setting [2].

The sequence RNGSERVVTSAREHIYDLRSLENY [CLINT1] gave a protein stability index under setting [1] of 3.5 ± 0.16 and a protein stability index under setting [2] of 3.81 ± 0.25.

In the case of RNPGPGRHRLITQVYLSHTAWTEA [INTS4], the protein stability index is 2 ± 0.23 under setting [1] and 2.29 ± 0.35 under setting [2].

RNQVVSSTNGELNVDDPTGAHSNA [CSNK1G1]: the protein stability index turned out to be 5.25 ± 0.12 under setting [1] and 5.22 ± 0.18 under setting [2].
